This note sets out measurements from patent US20050221433A1.

Sequence of hIL18BPa (1-192).His (O95998 31-194): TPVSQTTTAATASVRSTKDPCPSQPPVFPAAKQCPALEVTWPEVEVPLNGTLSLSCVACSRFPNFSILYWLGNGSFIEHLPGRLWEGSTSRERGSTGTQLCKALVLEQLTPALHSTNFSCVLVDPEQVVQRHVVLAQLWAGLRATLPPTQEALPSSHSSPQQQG
Sequence of hIL18BPa (1-168).TG.hFc (O95998 other isoform, or with tags, fused parts or gaps): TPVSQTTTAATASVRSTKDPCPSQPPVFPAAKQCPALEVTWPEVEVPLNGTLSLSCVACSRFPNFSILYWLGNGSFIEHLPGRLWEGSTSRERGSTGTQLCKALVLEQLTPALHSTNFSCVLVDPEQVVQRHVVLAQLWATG
Sequence of hIL18BPa (64-192).TG.hFc (O95998 other isoform, or with tags, fused parts or gaps): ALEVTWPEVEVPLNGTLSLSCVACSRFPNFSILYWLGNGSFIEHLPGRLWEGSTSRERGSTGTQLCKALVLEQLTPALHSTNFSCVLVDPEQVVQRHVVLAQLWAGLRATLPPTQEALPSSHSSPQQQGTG
Sequence of hIL18BPa (58-192).TG.his (O95998 other isoform, or with tags, fused parts or gaps): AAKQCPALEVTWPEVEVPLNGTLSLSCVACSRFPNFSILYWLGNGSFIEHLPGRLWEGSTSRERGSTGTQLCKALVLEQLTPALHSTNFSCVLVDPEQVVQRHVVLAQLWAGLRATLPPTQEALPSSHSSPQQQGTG

The target of the test is recombinant human IL-18 (human) (UniProt Q14116). Briefly: cell-based or functional assay.
Sequence of recombinant human IL-18 (human) (Q14116 37-193 limits assumed): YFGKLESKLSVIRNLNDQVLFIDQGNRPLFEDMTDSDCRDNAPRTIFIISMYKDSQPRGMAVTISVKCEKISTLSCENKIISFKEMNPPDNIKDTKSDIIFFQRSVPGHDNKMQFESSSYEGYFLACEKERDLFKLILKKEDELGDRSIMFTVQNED
As for “hFc.TG.hIL18BPa (58-192) (C129S). (from UniProt O95998 60-194) (Fc fusion)”, the IC50 (M), HEK293/NFkB-luciferase bioassay came out at 1.51e-10 M.
With “hIL18BPa (1-168).TG.hFc (from UniProt O95998 31-170) (Fc fusion)”, the IC50 (M), HEK293/NFkB-luciferase bioassay stood at 1.75e-09 M.
Next, “hIL18BPa (1-192) (C49S, C129S).hIL18Rβ.hFc (Fc fusion)”: 2.06e-10 M; “hIL18BPa (1-192) (C84S).TG.hFc (from UniProt O95998 31-194) (Fc fusion)”: 2.6e-05 M; “hIL18BPa (1-192) (C129S).hFc (from UniProt O95998 31-194) (Fc fusion)”: 2.05e-10 M.
As for “hIL18BPa (1-192).His (from UniProt O95998 31-194) (receptor)”, the IC50 (M), HEK293/NFkB-luciferase bioassay is 2.1e-10 M.
On to “hIL18BPa (58-192) (C62S, C87S, C129S).TG.hFc (from UniProt O95998 60-194) (Fc fusion)”, for which the IC50 (M), HEK293/NFkB-luciferase bioassay was determined as 7.56e-09 M.
Turning to “hIL18BPa (58-192) (C129D).TG.hFc (from UniProt O95998 60-194) (Fc fusion)”, the IC50 (M), HEK293/NFkB-luciferase bioassay came to 2.98e-09 M.
“hIL18BPa (58-192) (C129E).TG.hFc (from UniProt O95998 60-194) (Fc fusion)”: the IC50 (M), HEK293/NFkB-luciferase bioassay was 5.15e-10 M.
Next, “hIL18BPa (58-192) (C129H).TG..hFc (from UniProt O95998 60-194) (Fc fusion)”: 8.44e-11 M; “hIL18BPa (58-192) (C129K).TG.hFc (from UniProt O95998 60-194) (Fc fusion)”: 7.42e-11 M; “hIL18BPa (58-192) (C129S).biot.His (from UniProt O95998 60-194) (receptor)”: 4e-11 M.
Take “hIL18BPa (58-192) (C129S, C148S).TG.hFc (from UniProt O95998 60-194) (Fc fusion)”: the IC50 (M), HEK293/NFkB-luciferase bioassay was found to be 7.3e-09 M.
As for “hIL18BPa (58-192)(C62S, C129S).TG.hFc (from UniProt O95998 60-194) (Fc fusion)”, the IC50 (M), HEK293/NFkB-luciferase bioassay was determined as 9e-09 M.
As to “hIL18BPa (58-192)(C84S).TG.hFc (from UniProt O95998 60-194) (Fc fusion)”, the IC50 (M), HEK293/NFkB-luciferase bioassay was 7.38e-09 M.
As for “hIL18BPa (58-192)(C87S, C129S).TG.hFc (from UniProt O95998 60-194) (Fc fusion)”, the IC50 (M), HEK293/NFkB-luciferase bioassay worked out at 7.5e-09 M.
Next, “hIL18BPa (58-192)(C87S, C129S, C148S).TG.hFc (from UniProt O95998 60-194) (Fc fusion)”: 9.7e-09 M.
On to “hIL18BPa (58-192).TG.his (from UniProt O95998 60-194) (receptor)”, for which the IC50 (M), HEK293/NFkB-luciferase bioassay turned out to be 4.1e-10 M.
As to “hIL18BPa (64-192).TG.hFc (from UniProt O95998 66-194) (Fc fusion)”, the IC50 (M), HEK293/NFkB-luciferase bioassay turned out to be 7e-09 M.
Under “hIL18BPa(58-192)(C62S, C129S, C148S).TG.hFc (from UniProt O95998 60-194) (Fc fusion)” stands 6.7e-09 M; under “hIL18Rβ.SG.hIL18BPa (58-192).TG.hFc (Fc fusion)”, 2.3e-09 M; under “hIL18Rβ.hIL18BPa (1-192) (C49S, C129S).hFc (Fc fusion)”, 1.38e-09 M.
